# Measurements as given in US20160264649A1.
# B1: PGT-136 (antibody, V domains shown)
# VH: QLQLQESGPGLVKPSETLSLTCTVSGGSMRGTDWGENDFHYGWIRQSSAKGLEWIGSIHWRGRTTHYKTSFRSRATLSIDTSNNRFSLTFSFVTAADTAVYYCARHKYHDIFRVVPVAGWFDPWGQGLLVTVSS
# VL: EIVMTQSPPTLSVSPGETATLSCRASQNVKNNLAWYQLKPGQAPRLLIFDASSRAGGIPDRFSGSGYGTDFTLTVNSVQSEDFGDYFCQQYEEWPRTFGQGTKVDIK
# What was measured:
# Assay in all cases: cell-based or functional assay
# [1] = molecular target: HIV-1 Env of isolate 92UG001 (subtype D) (HIV-1)
# [2] = molecular target: HIV-1 Env of isolate 92UG005 (subtype D) (HIV-1)
# [3] = molecular target: HIV-1 Env of isolate 92UG024 (subtype D) (HIV-1)
# [4] = molecular target: HIV-1 Env of isolate 92UG046 (subtype D) (HIV-1)
# [5] = molecular target: HIV-1 Env of isolate 92UG114 (subtype D) (HIV-1)
# [6] = molecular target: HIV-1 Env of isolate 98CN006 (subtype CRF08_BC) (HIV-1)
# [7] = molecular target: HIV-1 Env of isolate 98CN009 (subtype CRF07_BC) (HIV-1)
# [8] = molecular target: HIV-1 Env of isolate MGRM-D-001 (subtype D) (HIV-1)
# [9] = molecular target: HIV-1 Env of isolate MGRM-D-002 (subtype D) (HIV-1)
# [10] = molecular target: HIV-1 Env of isolate MGRM-D-003 (subtype D) (HIV-1)
# [11] = molecular target: HIV-1 Env of isolate MGRM-D-004 (subtype D) (HIV-1)
# [12] = molecular target: HIV-1 Env of isolate MGRM-D-005 (subtype D) (HIV-1)
# [13] = molecular target: HIV-1 Env of isolate MGRM-D-008 (subtype D) (HIV-1)
# [14] = molecular target: HIV-1 Env of isolate MGRM-D-011 (subtype D) (HIV-1)
# [15] = molecular target: HIV-1 Env of isolate MGRM-D-012 (subtype D) (HIV-1)
# [16] = molecular target: HIV-1 Env of isolate MGRM-D-013 (subtype D) (HIV-1)
# [17] = molecular target: HIV-1 Env of isolate MGRM-D-014 (subtype D) (HIV-1)
# [18] = molecular target: HIV-1 Env of isolate MGRM-D-016 (subtype D) (HIV-1)
# [19] = molecular target: HIV-1 Env of isolate MGRM-D-018 (subtype D) (HIV-1)
# [20] = molecular target: HIV-1 Env of isolate MGRM-D-019 (subtype D) (HIV-1)
# [21] = molecular target: HIV-1 Env of isolate MGRM-D-020 (subtype D) (HIV-1)
# [22] = molecular target: HIV-1 Env of isolate MGRM-D-021 (subtype D) (HIV-1)
# [23] = molecular target: HIV-1 Env of isolate MGRM-D-022 (subtype D) (HIV-1)
# [24] = molecular target: HIV-1 Env of isolate MGRM-D-024 (subtype D) (HIV-1)
# [25] = molecular target: HIV-1 Env of isolate MGRM-D-026 (subtype D) (HIV-1)
# [26] = molecular target: HIV-1 Env of isolate MGRM-D-028 (subtype D) (HIV-1)
# [27] = molecular target: HIV-1 Env of isolate MGRM-D-029 (subtype D) (HIV-1)
# [28] = molecular target: HIV-1 Env of isolate MGRM-F1-004 (subtype F) (HIV-1)
# [29] = molecular target: HIV-1 Env of isolate MGRM-F1-006 (subtype F) (HIV-1)
# [30] = molecular target: HIV-1 Env of isolate MGRM-F1-008 (subtype F) (HIV-1)
# [31] = molecular target: HIV-1 Env of isolate MGRM-F1-010 (subtype F) (HIV-1)
# [32] = molecular target: HIV-1 Env of isolate MGRM-F1-012 (subtype F) (HIV-1)
# [33] = molecular target: HIV-1 Env of isolate MGRM-F1-013 (subtype F) (HIV-1)
# [34] = molecular target: HIV-1 Env of isolate MGRM-F1-014 (subtype F) (HIV-1)
# [35] = molecular target: HIV-1 Env of isolate MGRM-F1-015 (subtype F) (HIV-1)
# [36] = molecular target: HIV-1 Env of isolate MGRM-F1-016 (subtype F) (HIV-1)
# [37] = molecular target: HIV-1 Env of isolate MGRM-F1-017 (subtype F) (HIV-1)
# [38] = molecular target: HIV-1 Env of isolate MGRM-F1-018 (subtype F) (HIV-1)
# [39] = molecular target: HIV-1 Env of isolate MGRM-F1-020 (subtype F) (HIV-1)
# [40] = molecular target: HIV-1 Env of isolate MGRM-F1-021 (subtype F) (HIV-1)
# [41] = molecular target: HIV-1 Env of isolate MGRM-F1-022 (subtype F) (HIV-1)
# [42] = molecular target: HIV-1 Env of isolate MGRM-F1-023 (subtype F) (HIV-1)
# [43] = molecular target: HIV-1 Env of pseudovirus isolate MGRM-G-001 (subtype G) (HIV-1)
# [44] = molecular target: HIV-1 Env of pseudovirus isolate MGRM-G-004 (subtype G) (HIV-1)
# [45] = molecular target: HIV-1 Env of pseudovirus isolate MGRM-G-006 (subtype G) (HIV-1)
# [46] = molecular target: HIV-1 Env of pseudovirus isolate MGRM-G-009 (subtype G) (HIV-1)
# [47] = molecular target: HIV-1 Env of pseudovirus isolate MGRM-G-011 (subtype G) (HIV-1)
# [48] = molecular target: HIV-1 Env of pseudovirus isolate MGRM-G-013 (subtype G) (HIV-1)
# [49] = molecular target: HIV-1 Env of pseudovirus isolate MGRM-G-014 (subtype G) (HIV-1)
# [50] = molecular target: HIV-1 Env of pseudovirus isolate MGRM-G-015 (subtype G) (HIV-1)
# [51] = molecular target: HIV-1 Env of pseudovirus isolate MGRM-G-016 (subtype G) (HIV-1)
# [52] = molecular target: HIV-1 Env of pseudovirus isolate MGRM-G-017 (subtype G) (HIV-1)
# [53] = molecular target: HIV-1 Env of pseudovirus isolate MGRM-G-019 (subtype G) (HIV-1)
# [54] = molecular target: HIV-1 Env of pseudovirus isolate MGRM-G-024 (subtype G) (HIV-1)
# [55] = molecular target: HIV-1 Env of pseudovirus isolate MGRM-G-025 (subtype G) (HIV-1)
# [56] = molecular target: HIV-1 Env of pseudovirus isolate MGRM-G-027 (subtype G) (HIV-1)
# [57] = molecular target: HIV-1 Env of pseudovirus isolate MGRM-G-028 (subtype G) (HIV-1)
# [58] = molecular target: envelope of aMLV pseudovirus (negative control)
binder,measurement,setting,value
B1,IC50 (neutralization),[1],> 50 µg/mL
same,IC50 (neutralization),[2],> 50 µg/mL
same,IC50 (neutralization),[3],0.052 µg/mL
same,IC50 (neutralization),[4],> 50 µg/mL
same,IC50 (neutralization),[5],> 50 µg/mL
same,IC50 (neutralization),[6],0.406 µg/mL
same,IC50 (neutralization),[7],0.428 µg/mL
same,IC50 (neutralization),[8],> 50 µg/mL
same,IC50 (neutralization),[9],> 50 µg/mL
same,IC50 (neutralization),[10],> 50 µg/mL
same,IC50 (neutralization),[11],> 50 µg/mL
same,IC50 (neutralization),[12],> 50 µg/mL
same,IC50 (neutralization),[13],> 50 µg/mL
same,IC50 (neutralization),[14],> 50 µg/mL
same,IC50 (neutralization),[15],> 50 µg/mL
same,IC50 (neutralization),[16],> 50 µg/mL
same,IC50 (neutralization),[17],> 50 µg/mL
same,IC50 (neutralization),[18],> 50 µg/mL
same,IC50 (neutralization),[19],> 50 µg/mL
same,IC50 (neutralization),[20],> 50 µg/mL
same,IC50 (neutralization),[21],> 50 µg/mL
same,IC50 (neutralization),[22],> 50 µg/mL
same,IC50 (neutralization),[23],> 50 µg/mL
same,IC50 (neutralization),[24],> 50 µg/mL
same,IC50 (neutralization),[25],> 50 µg/mL
same,IC50 (neutralization),[26],> 50 µg/mL
same,IC50 (neutralization),[27],> 50 µg/mL
same,IC50 (neutralization),[28],> 50 µg/mL
same,IC50 (neutralization),[29],> 50 µg/mL
same,IC50 (neutralization),[30],> 50 µg/mL
same,IC50 (neutralization),[31],> 50 µg/mL
same,IC50 (neutralization),[32],> 50 µg/mL
same,IC50 (neutralization),[33],> 50 µg/mL
same,IC50 (neutralization),[34],> 50 µg/mL
same,IC50 (neutralization),[35],> 50 µg/mL
same,IC50 (neutralization),[36],> 50 µg/mL
same,IC50 (neutralization),[37],> 50 µg/mL
same,IC50 (neutralization),[38],> 50 µg/mL
same,IC50 (neutralization),[39],9.31 µg/mL
same,IC50 (neutralization),[40],> 50 µg/mL
same,IC50 (neutralization),[41],2.42 µg/mL
same,IC50 (neutralization),[42],> 50 µg/mL
same,IC50,[43],8.11 µg/mL
same,IC50,[44],> 50 µg/mL
same,IC50,[45],> 50 µg/mL
same,IC50,[46],> 50 µg/mL
same,IC50,[47],> 50 µg/mL
same,IC50,[48],> 50 µg/mL
same,IC50,[49],> 50 µg/mL
same,IC50,[50],> 50 µg/mL
same,IC50,[51],> 50 µg/mL
same,IC50,[52],> 50 µg/mL
same,IC50,[53],44.3 µg/mL
same,IC50,[54],0.152 µg/mL
same,IC50,[55],> 50 µg/mL
same,IC50,[56],45.2 µg/mL
same,IC50,[57],> 50 µg/mL
same,IC50,[58],> 50 µg/mL
